# Measured values reported in the DeepSol protein solubility set.
# Assay: soluble on expression in E. coli; label from the status in PepcDB or PDB records
row,Sequence,soluble on expression in E. coli
1,MAHHHHHHMSFSKFMKCSTQLSRRLSNFEGKGTFNKSAFYNCTREKCSIVCLRKKMNVELKKICEISKMNKRNYSSECENYEFKAETKKLLQIVAHSLYTDKEVFIRELISNSSDAIEKLRFLLQSGNIKASENITFHIKVSTDENNNLFIIEDSGVGMNKEEIIDNLGTIAKSGSLNFLKKLKEQKESINRNNNINKNEIDNKINNNNNMDVPIEGNEKSQEGDIIGQFGVGFYSSFVVSNKVEVFTRSYDNNSSKGYHWVSYGNGTFTLKEVDNIPKGTKIICHLKDSCKEFSNIQNVQKIVEKFSSFINFPVYVLKKKKILQTRKDIEQNELNDHTQQNELNHHNDQNDHTQQNELNHHNDQNDHTQQNELNHHNDQNDHTQQNELNHHVEHHKNVVENKNDEYEKNMDNRTSDNIKPESLSKQNDYENMNQCNNEETVLNRTKELNEEHIVEEILVNKQKPLWCKDNVTEEEHRHFFHFLNKNKSYNEDNKSYLYNMLYKTDAPLSIKSVFYIPEEAPSRLFQQSNDIEISLYCKKVLVKKNADNIIPKWLYFVKGVIDCEDMPLNISRENMQDSSLINKLSRVVVSKILKTLEREADINEEKYLKFYKNYNYNLKEGVLEDSNKNHYKNSLMNLLRFYSINQNKFISLKQYVNNFRNNQKNIYYFSANDKNVALNSPYMEPFKKQNIDVLLLLEEIDEFVLMNLQTYKDAKFVSIDTSQNEDFDEAVLNTNKNDNEKKQSIFFNDEQKKELQAYFKQVLGSK,not soluble
2,MAHHHHHHMSHEGAPQGEYVAILDAGSQYGKVIDRKVRELHVETSILSLNTPAEKLRNDANLKGIIISGGPSSVNDATSLAYDRAIFSMGKPVLGICYGMQMLTELYGGEVCRGKVREDGQDNIQVDTSSPIFAGLESTEAVLLTHGDSITAVGSELKVIARSSAGIISAVQHRSRPLFGVQFHPEVELTVSGKTIFKNFLQLCRCNFSFTMEDREAVALRLIRERTSGGQKVLCLASGGVDSTVCAVLLLKALGPERVVCIHIDHGFMRLNESVQAVEALNAAGVRVHLVKAQEDFAQASTEMTAKGSRAAYTTNKLREVTDPEEKRNIIGNTFMTVCDRVIKELQLDVENLLLAQGTLRPDLIESGSKYASVNAAAIKTHHNDTAVVRLLRDAGRIIEPLCDYHKDEVRELGARLGIPCRLLERQPFPGPGLAIRTLCTDGTPFRDGNFEDTQTTVKRVCMGADASSAEVAALAQKATLSACILPVRTVGVQGDGRTYAYAAALSMQTFPTAEQWATLIQLAKEIPKTAHAVNRVVFMFGPPQSESPSTVTPTYLTTDVLEKLRVADDKVNSILMKHQLVRSLSQVPIILIPIGFDKAGGYSVVVRTFLTNDFMTGIPATPGTAFMPLAVLEEIFNEVQKLEFVGRVMYDLTAKPPGTTEWE,not soluble
3,MAHHHHHHMSITAGTLPPVKGTSVKKSPRKGRPADSMGNGTGAAADPHCYHKCRCYGHDDTLPNYKLLTIPRTNNYYAATGGCPCVPRVAAHPGSWRLKEGQLRSSTYRCGTGCIKKSAALTLGCCHHSGDQYGWRRGPHTVLDKNTAATGKCDTFGNLAFKSTSRAYCAVGGDDLSDVSSASPQKLEDLEALILEEHQQRMRVEEDVDELAGIQRNGTADWYKKIHHDAERRRLLAQISEVELQDLLRDVKNIVDRPLNQTNMDLLRRILHRQEHLQRQREYYAAQELE,not soluble
4,MAHHHHHHMSITSRFIGGVKHLLKGGSMKYLAAGEPYCPFGEAFGLTILPEYILEDDASNLRKGYVDVYTRASDRIILNDGRFQLPPLPPASFMPLLERLEQDNVVPKSWLNNQTANLYEPGDFIRAHIDNLFVYDDIFAICSLGSNCLLRFVHVQNGEELDVMVPDRSVYIMSGPARYVYFHMVLPVEAQRFSLVFRRSIMESDGGFRPVKTPFKEIMPYRATQILNALYSKQVGGVRVSVDDDFLESADIGAFDTSRWVKRLHPLRDWSLLRQLDEDEARVEALREKRFIDVDFSWRYRELRSYYKAMEESLVSPHVAHVTPQA,soluble
5,MAHHHHHHMSKADENGNELMEIEEVAVSDGGAARFAAVDVKSGEERFNVIWQDSGKLMRFDEGENQWKERGQGTAKVLQRKDNTSKYMFVFRREGVGKLAAQHYLVKGMKVTKHKQGEKILVWSAFKDFTDDEEGFPENFVMRLSSKEAADKALAEMMGAIEKSSV,soluble
6,MAHHHHHHMSLADEVPREWASSIRPFLQRADEFQERVPVVAYFLRTHAVYLAMKMWRKEDGPGKAFIVKLLDTLESEKKRLEQELADVDGRVLLTQYALRIFSRADDEERSDGVVANMNLVRLFFTASLLFEATAQFTDDGTLDPIATEKRDYARYIAVEMKKAMDKGVPYVSPNRTGGMVESNKEHEGESTGGGGFSTNFVQSQQPGYGQWSAQYVTPQPPPPSHEPPETPMWSGPESTNTSSTQQQQQSTPLFQTTAQPNNSNDNSNIAAAVSGVAAPKGPTMDAIIEAQNYAKQAVSALQFYDHEVACKMLRSALDLLAQR,soluble
7,MAHHHHHHMSLYQRKTILAPMVRVGNVGFRVFCAAQGADVVFTEEIVAAKLARCHREVRVHNDAAGPMIEFVAYELFKNQYKRSVVFTTPARDMANQSGEGAPVVLQLGVSDAAVGVAAALLCCEDVDGIDVNMGCPKKFSVDNGMGAALMRDTSKAASILFALDDALNAPDKLAARGRRVPLSFKIRLLETAEATADMLISIMEKVGANRVHAITLHARTVNQVAEDSPHYDRAAEAVRRLRSHPLFKEMCFVLNGSVRSRDDGAVKMAQFGFDAIMIARHAMWDMSVFSRHVSSAGGRSSLTSEDAEAPLASTSWMDLYRSLLRTHAKYCTPFTYVKYHLTRSIPCIPALRHLMTAVQQEATCYEDLAKIFSLPLEEQESMRGVAAVEMVACVPNREVTLGVVSSNAIKHNDAARSGRVRSEKSAATPAAKKPRGE,soluble
8,MAHHHHHHMSPLDACREQYEKDLANQTHCCMLEHVEEENRAANRKVFVRLLRYQQDINTRGTLPFEPDPTDAQKKSKGGNSAAPAYPENLTIRDPRQLKQILPIPDIHKVSDCDLIYRFLIARRMDVDLATNDILSYIGFREKYSLDTILWDREVEAVFNGLDGEELVQQVMGEMKKGATPAPKVKITRPLLQAGWAAWYCGVDKRGHVIFYQRPNPKELAMLEKRWPYIEGQYDCRNPEFHSVTPPYSNLLSRVYLREVEKGRRISRLLNYNQQYIIREGLHVQTTVKPTSTDTFMDNGGGATCLVDVGSIKLSHLTSSKCKKAFKLFRVLSLTGQSFYPENMSRMIIINGGFVFNMLFKLVRPWLDPQTQKKIVLLSATNRATLDELSSDSNLMSQSHETNDSEESDDDGTPVVGTDSERAKYALRDALAEYIHEDFIPSWYGGRLPVVDSPLFYGASPPKSLAENPQFAAACERLRARVVPQLLPDAFIFANAKEREGVGQEEWEAFCSMTERTLFRKQASTQCSSHS,not soluble
9,MAHHHHHHMSPVIALHEDLQKRLEEYRSTRGFSPVKWIEQKCAALNEYMASHGLKVCVTSVSGGIDSAVVLALCSRAMRMPNSPIVRNVGICQPICSSAWALARGRENIQSCGALEVIVDQTELYKQLSRIVETAVGIDGQNFARGQLRSYMRTPVAYYVAQLYSQEGNAAIVMGTGNMDEDGYLAYFCKAGDGVVDVQLISDLHKSEVFRVARELGVPANTLQASPSADLWEGQTDEEELGFPYDFVELYTGWCLQLSDEERQSFLHSLSSDARQQYEKYKDACENTHRRNAHKLRGPINL,soluble
10,MAHHHHHHMSRNVAAEEEWEDVDAPNEEDEEEEDTTINNSDVMMRYKKAALWCNETLQLLLDATKPGAKVHELCKLGDETVAKKLKTMFKGTEKGLAFPTCISVNSCVAHNSPSADDEVASQEIQLGDVVHIDLGIHVDGYCAQVAHTVQVTENNELAADDDASKVISATYGILNTAMRKMRPGVSVYEVTEVIEKAAAHYGVTPVDGVLSHMLKRYIVDSFRCVPQRKVAEHLVHDYTLEAGQVWTLDIVMSSGKGKLKERDVRPTVYKVALDSNYTMKMESARELQREIEAKYQTFPFALRNLETKRARLGLSEMLKHGAVVPYPVLYERDGEVVGHFKITLLITAKKIEPVTGLKPQKAPTLPAYTDELLLEASKLPLTLEKKRKN,not soluble
11,MAHHHHHHMSRTLTTTQPSVASSPASSSSGSTHQRPSADQLAETVHQMDEENALEFVSIDATSRDQVFHFLHDHPDATAVVNAVGLLTRNYEDARQVNGDVMTNIAAGVFHPKLAQSVQKVVYVSAEPYNLYSRRILGSKHLLKGYFHGKRIGEKAVLENLGNKGVVLRPSFIYGTRHVLVASAMNPDAVSTLSLPLGWIGLPLDKLLTAIGGGKLLMPPVCVDVVAEAAVRACAWANQPGKDIHGICDVYRMRDICNAVDPSLHEDRNGTVTASTASKEASTVKNDR,not soluble
12,MAHHHHHHMSSASIVALSLSLSFSLGLLRSLGSARHIRYGHPHTNTSAYGGRHPRMQVMAAAARTYRHIVARELSTNFRAVASIVEAPFPTVLHPKAILVKNKYLGVNASDINFTAGIYQPDVRPPFACGFEAVGEVVDVGSGVKDLKAGAAVVTQSYGAFAEYQVVARRHAKPIPRVAREYLPLDLSATTASIALEHVLKPQPGERAVVTAAAGGTGQFAVQLLKHVYGCSVVGTCSSPSKEVFLTNTLKCDGVVNYKAEGGDTAAAFLRCYPRGVNIAYESVGGDLLEAVIQSLAPRGRILSLGCVSTYQCGSIEAACPSRKPLPLQLLAKSASLSTFFLPHFAKYGQLHFDRLCALHEQGLVQCCIDPTTFEGLEGVYDAIDWMFEQKNCGKVMVEL,not soluble
13,MAHHHHHHMSSSSSALDVPLVEVICSYPTREGLCAECPALLLLVYEHVVAELQAGRRAVDVFRGTSRQDHLSELLAVRSLSELFERLYPLSQSCILDESTASSQFWRQARVTLEAAWAAPHDAKGRALLTQVRGQPRFHFCGPRDVETPGEGYPLHPVSLERALATSKRFLRTAMTCALDGSTDALAGRQPELRAVLQLAHLVPLTPSTGAPPRKEVTPEGLSFCMVSLQQRWWILVNAALERVLLLTRAAVNGNGNTSGSSGVTKPLLWQLLAVLSVLDTTQYVFAFPERQQDLAAHHLLARLSEVGLVYPLLSNDRKCFVLSPDFLHAIHWHASAPLSLTFNHHLLRSASGVSGAGIGDLRREDTDTIITETNFRLFAYTNDADLLNILNQFAELEEIVNGNLHCYRVTRASFAAAMRKGITAAQVLRFLSLRAHPSMLRRHGEREENGDTASPSSAGGASSSFTFSASPRRGAVAGTCGSTTSIDAVSTLVVPQSFCDQMRMWESECRRVVFEHHVVLLRNMSTQQQKAVTAYLTDAGEVDAVVHAERGYMVIREEVFERLVAPLLG,not soluble
14,MAHHHHHHMSSSVKDILLEGSTCSTDMKLNDFLRSKLGGRGVVDTNEKVAMEMFVQDPETFIQNERLLRIITASPSYQELERELDEMKILLEAINKLHDEDVFSLEQWRGYEGKDTVTPLARGKINGVLTHVLREERRWAEERAVREKQVELTLTTTIEDVLFRGRVRVKDMKLNDFITMEMEGRGILRANRNVLLKEFFKDPTRYIHDAGVLNEIQASDAYLMAERAVRDEMDMEKDLRKLYKNGVSNLFGWSVASAEIRASVRDITKSFLDAALEEARKPTTTIAPIKMEGLYESVYNARWHHVVEVPGGEGTGMEVKKGRPPQQWTYKKVGYCLERDDGAEQYGAARLRLMVLASDKGRAVLVGGD,not soluble
